Measured values from patent US20230250154A1 (CYTONICS, published 2023).
Like-named read-outs stand apart in the source and are kept apart here.

T1: Cathepsin G (UniProt P08311 21-244)
T1 sequence (looked up): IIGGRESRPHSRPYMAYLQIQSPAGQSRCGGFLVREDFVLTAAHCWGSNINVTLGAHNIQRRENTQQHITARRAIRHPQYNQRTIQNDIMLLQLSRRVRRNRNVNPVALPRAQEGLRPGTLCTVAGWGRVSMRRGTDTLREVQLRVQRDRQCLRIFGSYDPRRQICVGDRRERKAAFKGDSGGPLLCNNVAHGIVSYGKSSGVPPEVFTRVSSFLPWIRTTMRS

T2: ADAMTS5 (human, UniProt Q9UNA0 262-622, limits assumed)
T2 sequence (looked up): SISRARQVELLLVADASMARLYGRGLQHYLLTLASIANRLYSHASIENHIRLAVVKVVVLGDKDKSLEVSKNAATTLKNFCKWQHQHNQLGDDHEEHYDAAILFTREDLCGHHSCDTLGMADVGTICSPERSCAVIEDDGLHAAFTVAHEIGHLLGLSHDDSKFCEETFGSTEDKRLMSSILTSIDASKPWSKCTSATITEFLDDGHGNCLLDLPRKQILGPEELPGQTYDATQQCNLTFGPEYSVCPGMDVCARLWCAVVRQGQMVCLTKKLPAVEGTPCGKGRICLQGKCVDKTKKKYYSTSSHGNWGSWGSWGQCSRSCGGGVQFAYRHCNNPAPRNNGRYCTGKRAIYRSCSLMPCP

T3: MMP1 (human, UniProt P03956 100-469, limits assumed)
T3 sequence (looked up): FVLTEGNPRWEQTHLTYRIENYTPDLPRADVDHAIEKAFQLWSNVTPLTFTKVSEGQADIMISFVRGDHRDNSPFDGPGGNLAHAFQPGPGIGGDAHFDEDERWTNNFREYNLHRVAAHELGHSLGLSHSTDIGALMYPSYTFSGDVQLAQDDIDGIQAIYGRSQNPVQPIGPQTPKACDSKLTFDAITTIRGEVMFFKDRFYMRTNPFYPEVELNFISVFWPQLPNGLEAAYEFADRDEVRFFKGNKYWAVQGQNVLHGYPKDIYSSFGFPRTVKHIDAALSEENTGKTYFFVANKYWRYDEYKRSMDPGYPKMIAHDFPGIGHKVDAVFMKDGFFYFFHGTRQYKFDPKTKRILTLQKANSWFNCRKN

T4: MMP2 (human, UniProt P08253 110-660, limits assumed)
T4 sequence (looked up): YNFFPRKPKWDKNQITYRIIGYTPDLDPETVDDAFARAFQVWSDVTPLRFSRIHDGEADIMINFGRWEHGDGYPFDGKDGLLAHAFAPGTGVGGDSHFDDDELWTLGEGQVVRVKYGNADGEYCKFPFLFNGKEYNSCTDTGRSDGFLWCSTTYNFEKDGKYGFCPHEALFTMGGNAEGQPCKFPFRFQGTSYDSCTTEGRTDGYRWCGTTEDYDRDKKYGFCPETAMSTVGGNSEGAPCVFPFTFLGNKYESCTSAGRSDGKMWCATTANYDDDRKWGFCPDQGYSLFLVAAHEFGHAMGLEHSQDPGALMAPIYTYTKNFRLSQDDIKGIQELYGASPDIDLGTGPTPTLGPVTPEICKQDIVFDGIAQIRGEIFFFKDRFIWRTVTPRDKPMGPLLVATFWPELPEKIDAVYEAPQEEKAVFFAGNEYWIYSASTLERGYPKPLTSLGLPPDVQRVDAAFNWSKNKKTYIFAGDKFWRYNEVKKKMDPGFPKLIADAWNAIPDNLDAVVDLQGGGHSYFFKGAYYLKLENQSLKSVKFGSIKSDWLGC

T5: MMP7 (UniProt P09237 95-267, limits assumed)
T5 sequence (looked up): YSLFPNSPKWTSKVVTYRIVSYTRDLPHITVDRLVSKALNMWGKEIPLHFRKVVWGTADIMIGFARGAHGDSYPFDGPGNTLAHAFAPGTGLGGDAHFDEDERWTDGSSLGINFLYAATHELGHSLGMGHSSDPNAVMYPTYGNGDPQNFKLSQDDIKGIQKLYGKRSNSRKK


Tests used:
Assay in all cases: cell-based or functional assay
[1] = target: Elastase
[2] = target: T1, Cathepsin G
[3] = target: T2, ADAMTS5
[4] = target: T3, MMP1
[5] = target: MMP8 (human, UniProt P22894 101-467, limits assumed)
[6] = target: MMP13 (human, UniProt P45452 104-471, limits assumed)
[7] = target: T4, MMP2
[8] = target: MMP9 (human, UniProt P14780 107-707, limits assumed)
[9] = target: MMP3 (human, UniProt P08254 100-477, limits assumed)
[10] = target: Elastase; remark: listed apart in the source
[11] = target: T1, Cathepsin G; remark: listed apart in the source
[12] = target: T5, MMP7

Sequence of MMP9 (P14780 107-707 limits assumed): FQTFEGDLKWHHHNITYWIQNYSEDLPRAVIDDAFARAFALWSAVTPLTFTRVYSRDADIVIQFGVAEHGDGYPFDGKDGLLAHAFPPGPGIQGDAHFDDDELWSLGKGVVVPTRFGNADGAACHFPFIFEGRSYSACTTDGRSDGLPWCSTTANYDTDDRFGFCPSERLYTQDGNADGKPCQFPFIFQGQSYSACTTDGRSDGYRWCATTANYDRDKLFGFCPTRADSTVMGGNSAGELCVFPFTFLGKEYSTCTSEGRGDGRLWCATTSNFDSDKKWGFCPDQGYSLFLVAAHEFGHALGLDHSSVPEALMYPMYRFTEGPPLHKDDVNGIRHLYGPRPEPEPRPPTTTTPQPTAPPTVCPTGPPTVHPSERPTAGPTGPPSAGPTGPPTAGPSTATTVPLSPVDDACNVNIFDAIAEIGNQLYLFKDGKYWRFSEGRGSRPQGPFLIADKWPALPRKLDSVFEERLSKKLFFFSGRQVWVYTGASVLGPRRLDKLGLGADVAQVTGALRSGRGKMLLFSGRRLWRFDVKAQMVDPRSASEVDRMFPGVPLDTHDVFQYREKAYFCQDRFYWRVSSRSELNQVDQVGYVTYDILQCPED
Sequence of MMP8 (P22894 101-467 limits assumed): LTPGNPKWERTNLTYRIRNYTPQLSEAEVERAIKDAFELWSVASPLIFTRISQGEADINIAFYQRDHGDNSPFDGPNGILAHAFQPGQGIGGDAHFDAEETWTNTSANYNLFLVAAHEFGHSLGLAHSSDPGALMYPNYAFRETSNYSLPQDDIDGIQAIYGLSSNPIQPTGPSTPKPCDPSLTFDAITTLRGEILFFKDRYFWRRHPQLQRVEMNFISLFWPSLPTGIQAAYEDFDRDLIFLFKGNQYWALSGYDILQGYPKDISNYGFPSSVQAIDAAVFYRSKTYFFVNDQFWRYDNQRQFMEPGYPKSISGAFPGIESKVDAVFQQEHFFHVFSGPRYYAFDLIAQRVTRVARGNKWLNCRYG
Sequence of MMP3 (P08254 100-477 limits assumed): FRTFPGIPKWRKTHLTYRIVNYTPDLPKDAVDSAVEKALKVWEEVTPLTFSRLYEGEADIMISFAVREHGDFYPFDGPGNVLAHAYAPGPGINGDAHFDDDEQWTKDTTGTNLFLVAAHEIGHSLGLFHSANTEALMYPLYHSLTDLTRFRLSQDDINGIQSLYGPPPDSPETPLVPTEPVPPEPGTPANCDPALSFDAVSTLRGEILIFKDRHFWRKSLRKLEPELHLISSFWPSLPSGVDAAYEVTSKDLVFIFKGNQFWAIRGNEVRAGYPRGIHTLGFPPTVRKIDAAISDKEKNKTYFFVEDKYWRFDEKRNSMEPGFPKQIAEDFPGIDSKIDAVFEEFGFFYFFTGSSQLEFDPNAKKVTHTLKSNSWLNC

Binder	Protease Inhibition (% of WT) [1]	Protease Inhibition (% of WT) [2]	Protease Inhibition (% of WT) [3]	Protease Inhibition (% of WT) [4]	Protease Inhibition (% of WT) [5]	Protease Inhibition (% of WT) [6]	Protease Inhibition (% of WT) [7]	Protease Inhibition (% of WT) [8]	Protease Inhibition (% of WT) [9]	Protease Inhibition (% of WT) [10]	Protease Inhibition (% of WT) [11]	Protease Inhibition (% of WT) [12]
Variant A2M, bait region SEQ ID NO 124 (other) SVSGKPQYMVLVPSLLHTETTEKGCVLLSYLNETVTVSASLESVRGNRSLFTDLEAENDVLHCVAFAVPKSSSNEEVMFLTVQVKGPTQEFKKRTTVMVKNEDSLVFVQTDKSIYKPGQTVKFRVVSMDENFHPLNELIPLVYIQDPKGNRIAQWQSFQLEGGLKQFSFPLSSEPFQGSYKVVVQKKSGGRTEHPFTVEEFVLPKFEVQVTVPKIITILEEEMNVSVCGLYTYGKPVPGHVTVSICRKYSDASDCHGEDSQAFCEKFSGQLNSHGCFYQQVKTKVFQLKRKEYEMKLHTEAQIQEEGTVVELTGRQSSEITRTITKLSFVKVDSHFRQGIPFFGQVRLVDGKGVPIPNKVIFIRGNEANYYSNATTDEHGLVQFSINTTNVMGTSLTVRVNYKDRSPCYGYQWVSEEHEEAHHTAYLVFSPSKSFVHLEPMSHELPCGHTQTVQAHYILNGGTLLGLKKLSFYYLIMAKGGIVRTGTHGLLVKQEDMKGHFSISIPVKSDIAPVARLLIYAVLPTGDVIGDSAKYDVENCLANKVDLSFSPSQSLPASHAHLRVTAAPQSVCALRAVDQSVLLMKPDAELSASSVYNLLPEKDLTGFPGPLNDQDDEDCINRHNVYINGITYTPVSSTNEKDMYSFLEDMGLKAFTNSKIRKPKMCPQLEQYEMHGPKEEEGLGSSELEGRGSEAIPMSIPTIPENFFGVVEEPHTKLRKYFPETWIWDLVVVNSAGVAEVGVTVPDTITEWKAGAFCLSEDAGLGISSTASLRAFQPFFVELTMPYSVIRGEAFTLKATVLNYLPKCIRVSVQLEASPAFLAVPVEKEQAPHCICANGRQTVSWAVTPKSLGNVNFTVSAEALESQELCGTEVPSVPEHGRKDTVIKPLLVEPEGLEKETTFNSLLCPSGGEVSEELSLKLPPNVVEESARASVSVLGDILGSAMQNTQNLLQMPYGCGEQNMVLFAPNIYVLDYLNETQQLTPEIKSKAIGYLNTGYQRQLNYKHYDGSYSTFGERYGRNQGNTWLTAFVLKTFAQARAYIFIDEAHITQALIWLSQRQKDNGCFRSSGSLLNNAIKGGVEDEVTLSAYITIALLEIPLTVTHPVVRNALFCLESAWKTAQEGDHGSHVYTKALLAYAFALAGNQDKRKEVLKSLNEEAVKKDNSVHWERPQKPKAPVGHFYEPQAPSAEVEMTSYVLLAYLTAQPAPTSEDLTSATNIVKWITKQQNAQGGFSSTQDTVVALHALSKYGAATFTRTGKAAQVTIQSSGTFSSKFQVDNNNRLLLQQVSLPELPGEYSMKVTGEGCVYLQTSLKYNILPEKEEFPFALGVQTLPQTCDEPKAHTSFQISLSVSYTGSRSASNMAIVDVKMVSGFIPLKPTVKMLERSNHVSRTEVSSNHVLIYLDKVSNQTLSLFFTVLQDVPVRDLKPAIVKVYDYYETDEFAIAEYNAPCSKDLGNADYKDDDDKGASHHHHHH	75 % of WT	250 % of WT										
Variant A2M, bait region SEQ ID NO 29 (other) SVSGKPQYMVLVPSLLHTETTEKGCVLLSYLNETVTVSASLESVRGNRSLFTDLEAENDVLHCVAFAVPKSSSNEEVMFLTVQVKGPTQEFKKRTTVMVKNEDSLVFVQTDKSIYKPGQTVKFRVVSMDENFHPLNELIPLVYIQDPKGNRIAQWQSFQLEGGLKQFSFPLSSEPFQGSYKVVVQKKSGGRTEHPFTVEEFVLPKFEVQVTVPKIITILEEEMNVSVCGLYTYGKPVPGHVTVSICRKYSDASDCHGEDSQAFCEKFSGQLNSHGCFYQQVKTKVFQLKRKEYEMKLHTEAQIQEEGTVVELTGRQSSEITRTITKLSFVKVDSHFRQGIPFFGQVRLVDGKGVPIPNKVIFIRGNEANYYSNATTDEHGLVQFSINTTNVMGTSLTVRVNYKDRSPCYGYQWVSEEHEEAHHTAYLVFSPSKSFVHLEPMSHELPCGHTQTVQAHYILNGGTLLGLKKLSFYYLIMAKGGIVRTGTHGLLVKQEDMKGHFSISIPVKSDIAPVARLLIYAVLPTGDVIGDSAKYDVENCLANKVDLSFSPSQSLPASHAHLRVTAAPQSVCALRAVDQSVLLMKPDAELSASSVYNLLPEKDLTGFPGPLNDQDDEDCINRHNVYINGITYTPVSSTNEKDMYSFLEDMGLKAFTNSKIRKPKMCPQLEQPEGEGEGPRYLTAIPENFFGVSEDLVVQISELEGRGSVEEPHTKLRKYFPETWIWDLVVVNSAGVAEVGVTVPDTITEWKAGAFCLSEDAGLGISSTASLRAFQPFFVELTMPYSVIRGEAFTLKATVLNYLPKCIRVSVQLEASPAFLAVPVEKEQAPHCICANGRQTVSWAVTPKSLGNVNFTVSAEALESQELCGTEVPSVPEHGRKDTVIKPLLVEPEGLEKETTFNSLLCPSGGEVSEELSLKLPPNVVEESARASVSVLGDILGSAMQNTQNLLQMPYGCGEQNMVLFAPNIYVLDYLNETQQLTPEIKSKAIGYLNTGYQRQLNYKHYDGSYSTFGERYGRNQGNTWLTAFVLKTFAQARAYIFIDEAHITQALIWLSQRQKDNGCFRSSGSLLNNAIKGGVEDEVTLSAYITIALLEIPLTVTHPVVRNALFCLESAWKTAQEGDHGSHVYTKALLAYAFALAGNQDKRKEVLKSLNEEAVKKDNSVHWERPQKPKAPVGHFYEPQAPSAEVEMTSYVLLAYLTAQPAPTSEDLTSATNIVKWITKQQNAQGGFSSTQDTVVALHALSKYGAATFTRTGKAAQVTIQSSGTFSSKFQVDNNNRLLLQQVSLPELPGEYSMKVTGEGCVYLQTSLKYNILPEKEEFPFALGVQTLPQTCDEPKAHTSFQISLSVSYTGSRSASNMAIVDVKMVSGFIPLKPTVKMLERSNHVSRTEVSSNHVLIYLDKVSNQTLSLFFTVLQDVPVRDLKPAIVKVYDYYETDEFAIAEYNAPCSKDLGNADYKDDDDKGASHHHHHH			85 % of WT	87 % of WT	29 % of WT	70 % of WT	16 % of WT	5 % of WT	101 % of WT	98 % of WT	84 % of WT	104 % of WT
